Source: patent publication US20190284293A1 (Bristol-Myers Squibb, published 2019)
“And” between values parts separate entries of the source, which are not always exact repeats. Equal values may be shown once.

B1: 5F8 (antibody, human IgG1, kappa, V domains shown)
VH: EVQLVESGGGLVQPGGSLRLSCAASGFTFSSYWMHWVRQAPGKGLVWVSRIISDGSSTGYADSVKGRFTISRDNAKNTLYLQMNSLRAEDTAVYYCAREFSSGWYFDYWGQGTLVTVSS
VL: AIQLTQSPSSLSASVGDRVTITCRASQGISSALAWYQQKPGKAPKLLIYDASSLESGVPSRFSGSGSGTDFTLTISSLQPEDFATYYCQQFSSYPRTFGQGTKVEIKR
notes: IgG1za; VK2 also expressed; also called 5F8-1
B2: CD73.11-IgG2-C219S (antibody)
heavy: QVQLVESGGGVVQPGRSLRLSCAASGFTFSNYGMHWVRQAPGKGLEWVAVIWYDESNKYYADSVKGRFTISRDNSKNTLFLQMNSLRAEDTAVYYCARGYNSRWYPDAFDIWGQGTMVTVSSASTKGPSVFPLAPCSRSTSESTAALGCLVKDYFPEPVTVSWNSGALTSGVHTFPAVLQSSGLYSLSSVVTVPSSNFGTQTYTCNVDHKPSNTKVDKTVERKSCVECPPCPAPPVAGPSVFLFPPKPKDTLMISRTPEVTCVVVDVSHEDPEVQFNWYVDGVEVHNAKTKPREEQFNSTFRVVSVLTVVHQDWLNGKEYKCKVSNKGLPAPIEKTISKTKGQPREPQVYTLPPSREEMTKNQVSLTCLVKGFYPSDIAVEWESNGQPENNYKTTPPMLDSDGSFFLYSKLTVDKSRWQQGNVFSCSVMHEALHNHYTQKSLSLSPG
light: not shown
notes: 4D4 variable regions; also called CD73.11-IgG2CS; mAb-CD73.11-Vh-hHC-IgG2-C219S
B3: 11A6 (antibody, human IgG1, kappa, V domains shown)
VH: EVQLVESGGNLVQPGRSLRLSCAASGFTFDDYAMHWVRQAPGKGLEWVSGISWNNNDIGYADSVKGRFIISRDNAKNSLYLQMNSLRPEDTALYYCVKGYYVILTGLDYWGQGTPVTVSS
VL: DIQMTQSPSSLSASVGDRVTITCRASQGISSWLAWYQQKPEKAPKSLIYAASSLQSGVPSRFSGSGSGTDFTLTISSLQPEDFATYYCQQYNSYPLTFGGGTKVEIKR
notes: IgG1za; also called 11A6-1
B4: 10D2 (antibody, human IgG4, kappa, V domains shown)
VH: QVQLVESGGGVVQPGRSLRLSCAASGFTFSNYGLHWVRQAPGKGLEWVAVIRYDGSNKYYADSVKGRFTISRDNSKNTLYLQMSSLRAEDTAVYYCARGGSSWYPDGLDVWGQGTTVTVSS
VL: DIQMTQSPSSLSASVGDRVTITCRASQGISSWLAWYQQKPEKAPKSLIYAASSLQSGVPSRFSGSGSGTDFTLTISSLQPEDFATYYCQQYNSYPLTFGGGTKVEIKR
notes: also called 10D2-2
B5: 4C3 (antibody, human IgG1, kappa, V domains shown)
VH: EVQLVESGGGLVQPGRSLRLSCAASGFTFDDYAMHWVRQAPGKGLEWVSGISWKSGSIGYADSVKGRFTISRDNAKNSLYLQMNSLRAEDTALYYCVKGYYVILTGLDYWGQGTLVTVSS
VL: not shown
notes: IgG1za; also called 4C3-1
B6: 7A11 (antibody, human IgG1, kappa, V domains shown)
VH: EVQLVESGGGLVQTGRSLRLSCAASGFTFDDYAMHWVRQAPGKGLEWVSDISWNSDIIGYADSVKGRFTISRDNAKNSLYLQMNSLRAEDTALYYCAKDIYGSGSSFFDYWGQGILVTVSS
VL: DIQMTQSPSSLSASVGDRVTITCRASQYISSWLAWYQQKPEKAPKSLIYAASSLQSGVPSRFSGSGSGTDFTLTISSLQPEDFATYYCQQYHSYPPTFGQGTRLEIKR
notes: IgG1za; also called 7A11-1
B7: 24H2 (antibody, human IgG4, kappa, V domains shown)
VH: QVQLVESGGGVVQPGRSLRLSCAASGFTFSNYGMHWVRQAPGKGLEWVAVIWYDGGNKYYADSVKGRFTISRDNSKNTLFLQMNSLRAEDTAVYYCARGGSSWYPDAFDIWGQGTMVTVSS
VL: DIQMTQSPSSLSASVGDRVTITCRASQGISSWLAWYQQKPEKAPKSLIYAASSLQSGVPSRFSGSGSGTDFTLTISSLQPEDFATYYCQQYNSYPLTFGGGTKVEIKR
notes: also called 24H2-1
B8: 4D4 (antibody, human IgG2, kappa)
heavy: QVQLVESGGGVVQPGRSLRLSCAASGFTFSNYGMHWVRQAPGKGLEWVAVIWYDESNKYYADSVKGRFTISRDNSKNTLFLQMNSLRAEDTAVYYCARGYNSRWYPDAFDIWGQGTMVTVSSASTKGPSVFPLAPCSRSTSESTAALGCLVKDYFPEPVTVSWNSGALTSGVHTFPAVLQSSGLYSLSSVVTVPSSNFGTQTYTCNVDHKPSNTKVDKTVERKCCVECPPCPAPPVAGPSVFLFPPKPKDTLMISRTPEVTCVVVDVSHEDPEVQFNWYVDGVEVHNAKTKPREEQFNSTFRVVSVLTVVHQDWLNGKEYKCKVSNKGLPAPIEKTISKTKGQPREPQVYTLPPSREEMTKNQVSLTCLVKGFYPSDIAVEWESNGQPENNYKTTPPMLDSDGSFFLYSKLTVDKSRWQQGNVFSCSVMHEALHNHYTQKSLSLSPGK
light: not shown
notes: IgG2; also called 4D4-1

How the values were obtained:
[1] = molecular target: T1, rhCD73 bound to his-tag magnet beads (human, UniProt P21589 27-547, limits assumed); assay: cell-based or functional assay
T1 sequence: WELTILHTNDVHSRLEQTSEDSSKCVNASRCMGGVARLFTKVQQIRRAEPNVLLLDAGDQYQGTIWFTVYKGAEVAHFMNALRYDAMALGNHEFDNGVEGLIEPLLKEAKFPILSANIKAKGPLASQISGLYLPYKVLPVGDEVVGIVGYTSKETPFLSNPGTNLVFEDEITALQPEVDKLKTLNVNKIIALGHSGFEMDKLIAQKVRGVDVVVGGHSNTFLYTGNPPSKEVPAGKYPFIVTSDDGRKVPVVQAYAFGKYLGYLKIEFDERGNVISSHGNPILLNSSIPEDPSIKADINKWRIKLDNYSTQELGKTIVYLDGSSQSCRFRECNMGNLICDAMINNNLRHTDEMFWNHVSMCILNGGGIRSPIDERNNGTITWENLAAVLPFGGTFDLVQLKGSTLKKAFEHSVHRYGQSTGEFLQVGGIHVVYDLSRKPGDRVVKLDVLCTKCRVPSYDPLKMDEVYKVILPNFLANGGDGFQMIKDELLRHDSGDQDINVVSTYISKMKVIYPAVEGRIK

[2] = molecular target: T2, human CD73 on cells (human, UniProt P21589 27-549); assay: cell-based or functional assay
T2 sequence: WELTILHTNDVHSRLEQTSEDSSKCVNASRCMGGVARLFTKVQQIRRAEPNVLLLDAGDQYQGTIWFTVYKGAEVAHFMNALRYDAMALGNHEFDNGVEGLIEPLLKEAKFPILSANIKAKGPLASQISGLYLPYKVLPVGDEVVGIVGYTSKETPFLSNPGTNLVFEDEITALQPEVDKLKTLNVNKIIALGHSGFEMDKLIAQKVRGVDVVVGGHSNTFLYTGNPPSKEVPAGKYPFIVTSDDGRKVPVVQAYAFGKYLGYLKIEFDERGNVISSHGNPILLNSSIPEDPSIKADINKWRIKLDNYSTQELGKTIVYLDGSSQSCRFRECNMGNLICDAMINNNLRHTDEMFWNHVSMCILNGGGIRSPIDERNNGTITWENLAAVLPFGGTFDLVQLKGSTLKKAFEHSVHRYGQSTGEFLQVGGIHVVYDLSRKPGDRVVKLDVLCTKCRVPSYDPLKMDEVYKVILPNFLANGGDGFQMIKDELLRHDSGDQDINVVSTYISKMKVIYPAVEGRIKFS

[3] = molecular target: T2, human CD73 on cells; assay: cell-based or functional assay; remark: listed apart in the source
[4] = molecular target: T3, N-hCD73-his (N-terminal domain of human CD73, residues 26-336, His tag) (human, UniProt P21589 26-336); assay: SPR, mAb captured on protein A
T3 sequence: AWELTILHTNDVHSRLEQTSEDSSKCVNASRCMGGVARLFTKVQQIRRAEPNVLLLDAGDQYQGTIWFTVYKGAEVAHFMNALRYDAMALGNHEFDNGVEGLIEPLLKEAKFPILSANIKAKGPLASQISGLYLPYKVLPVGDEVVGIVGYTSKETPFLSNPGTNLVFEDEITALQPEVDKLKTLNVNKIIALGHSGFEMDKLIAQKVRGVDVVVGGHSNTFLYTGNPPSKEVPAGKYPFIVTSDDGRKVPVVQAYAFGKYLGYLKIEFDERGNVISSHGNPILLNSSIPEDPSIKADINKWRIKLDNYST
Experimental: For these experiments, protein A (Pierce) was immobilized to a density of 3000-4000 RU on flow cells 1-4 of a CM5 sensor chip (GE Healthcare) using standard ethyl(dimethylaminopropyl) carbodiimide (EDC)/N-hydroxysuccinimide […] chemistry, with ethanolamine blocking, in a running buffer of 0.01 M HEPES pH 7.4, 0.15 M NaCl, 3 mM EDTA, 0.005% v/v tween 20. […] The running buffer for the kinetic experiments was 10 mM sodium phosphate, 130 mM sodium chloride, 0.05% tween 20, pH 7.1. The surfaces were regenerated after each cycle using two 30 s pulses of 10 mM glycine pH 1.5 at a flow rate of 30 μl/min. Sensogram data was double-referenced and then fitted to a 1:1 Langmuir model using Biacore T100 evaluation software v2.0.4, to determine the association rate constant (ka), the dissociation rate constant (kd), and the equilibrium dissociation constant (KD).

[5] = molecular target: T2, human CD73 on cells; assay: binding titration on Calu6 cells, average of 2-6 experiments
[6] = molecular target: T3, N-hCD73-his (N-terminal domain of human …); assay: SPR
[7] = molecular target: T2, human CD73 on cells; assay: cell-based or functional assay; remark: listed apart in the source

Binder	EC50 (nM), inhibition of bead-bound human CD73 enzymatic activity [1]	EC50 Calu6 inhibition [2]	EC50 H292 inhibition [2]	EC50 SKMEL24 inhibition [2]	IC50 (nM), cAMP HTRF assay, Calu-6 with HEK293/A2AR cells [3]	Ymax, cAMP HTRF assay (percent of 100 nM 11F11 control) [3]	Kd [4]	koff [4]	kon [4]	EC50 [5]	Kd [6]	Ymax, high-content internalization assay (percent of 100 nM 11F11) [7]	EC50 (nM), high-content internalization assay, Calu6, 2 h [7]
B1	5.76 nM	8.1 nM	13.5 nM	110 nM	13.2 nM	80%	41 nM	0.006 s⁻¹	150000 M⁻¹ s⁻¹	11.7 nM	–	–	–
B2	–	–	–	–	–	–	3.5 nM and 6.5 nM	0.00028 s⁻¹ and 0.00051 s⁻¹	80000 M⁻¹ s⁻¹ and 79000 M⁻¹ s⁻¹	–	~5 nM	–	–
B3	3.12 nM	2.21 nM	–	–	4.87 nM	84%	140 nM	0.0076 s⁻¹	55000 M⁻¹ s⁻¹	1.93 nM	–	–	–
B4	6.94 nM	–	–	–	–	–	1.6 nM	0.00095 s⁻¹	610000 M⁻¹ s⁻¹	–	–	29%	–
B5	–	–	–	–	–	80%	–	–	–	–	100 to 200 nM	–	–
B6	2.86 nM	0.95 nM	1.31 nM	3.72 nM	0.95 nM	45%	0.43 nM	0.00038 s⁻¹	880000 M⁻¹ s⁻¹	0.35 nM	–	50%	2.59 nM
B7	4.18 nM	–	–	–	–	–	14 nM	0.0032 s⁻¹	230000 M⁻¹ s⁻¹	–	–	51%	8.2 nM
B8	5.31 nM	–	–	–	–	–	9.4 nM and 6.2 nM	0.00077 s⁻¹ and 0.00049 s⁻¹	82000 M⁻¹ s⁻¹ and 79000 M⁻¹ s⁻¹	0.82 nM	~5 nM	104%	0.38 nM
